# Results: patent US8415106B2, “Cell-based screen for agents useful for reducing neuronal demyelination or promoting neuronal remyelination” (Myelin Repair Foundation, Inc., priority 2005, dated 2013)
# B1: IFN-γ: pleotropic cytokine secreted by activated T lymphocytes and natural killer cells; recombinant rat IFN-γ added to cultures or transgenically expressed in mouse CNS (protein, UniProt P01581 23-156, looked up)
# Interferon gamma: QGTLIESLESLKNYFNSSSMDAMEGKSLLLDIWRNWQKDGNTKILESQIISFYLRLFEVLKDNQAISNNISVIESHLITNFFSNSKAKKDAFMSIAKFEVNNPQIQHKAVNELIRVIHQLSPESSLRKRKRSRC
# System: ER stress markers (BIP, CHOP, p-eIF-2α, caspase-12)
# Experiment: ER stress markers in IFN-γ-treated cultured rat oligodendrocytes (real-time PCR, Western blot)
# Type: cell-based
# Method: To test whether apoptosis of oligodendrocytes that is induced by INF-γ affects ER stress, the effect on the morphology, the degree of apoptosis and the expression of ER markers was studied in a culture of oligodendrocyte precursor cells (OPC). Oligodendrocyte progenitors were cultured from neonatal rat brains (Baerwald, et al. (1998) J. Neurosci. Res. 52: 230-239). A mixed glial culture was grown in flasks in medium containing 10% fetal bovine serum (FBS), and when the astrocyte layer became confluent (10-14 days), oligodendrocyte progenitors were separated from astrocytes and microglia using an orbital shaker. Cells, greater than 95% of which were A2B5 positive, GFAP negative and CD11b negative, were cultured in 0.5% FBS containing medium, which also contained PDGF (10 ng/ml) and FGF (5 ng/ml) (both from R&D Systems, Minneapolis, Minn.). Then cells were switched to 0.5% FBS medium without PDGF and FGF for differentiation. After 5 days in the differentiating medium, approximately 40% of cells were positive for myelin protein 2′3′-cyclic nucleotide 3′-phosphodiestaerase (CNP). 70 U/ml recombinant rat IFN-γ (Calbiochem, La Jolla, Calif.) was added to the cells that had been allowed to differentiation for 5 days. […]
# To determine whether INF-γ affects ER function, the RNA expression of ER markers binding immunoglobulin protein (BIP), CAAT enhancer binding protein homologous protein (CHOP), and caspase 12 was determined using real time PCR. […]
# To determine the effect of INF-γ on the level of phosphorylated eIF-2α and caspase 12 proteins, western blot analysis was performed using the following antibodies anti-eIF-2α (1:500; Santa Cruz), anti-p-eIF-2α (1:1000, Cell signaling Technology), anti-caspase-12 (1:500; Santa Cruz) and anti-actin (1:1000; Sigma, St Louis, Mo.), and according to the following protocol. […] The protein content of each extract was determined by protein assay (Bio-Rad). […]
molecule,measurement,setting,value
B1,caspase-12 expression (real-time PCR),70 U/ml IFN-γ,induction of caspase-12 was observed
same,level of phosphorylated eIF-2α (Western blot),"70 U/ml IFN-γ, oligodendroglial cultures",significantly elevated
same,level of the active fragment of caspase-12 (Western blot),after 48 h of IFN-γ treatment,strongly elevated
